Target: T1, Human LRP6 E1E2 (21-630) (human, UniProt O75581 21-630)
T1 sequence (looked up): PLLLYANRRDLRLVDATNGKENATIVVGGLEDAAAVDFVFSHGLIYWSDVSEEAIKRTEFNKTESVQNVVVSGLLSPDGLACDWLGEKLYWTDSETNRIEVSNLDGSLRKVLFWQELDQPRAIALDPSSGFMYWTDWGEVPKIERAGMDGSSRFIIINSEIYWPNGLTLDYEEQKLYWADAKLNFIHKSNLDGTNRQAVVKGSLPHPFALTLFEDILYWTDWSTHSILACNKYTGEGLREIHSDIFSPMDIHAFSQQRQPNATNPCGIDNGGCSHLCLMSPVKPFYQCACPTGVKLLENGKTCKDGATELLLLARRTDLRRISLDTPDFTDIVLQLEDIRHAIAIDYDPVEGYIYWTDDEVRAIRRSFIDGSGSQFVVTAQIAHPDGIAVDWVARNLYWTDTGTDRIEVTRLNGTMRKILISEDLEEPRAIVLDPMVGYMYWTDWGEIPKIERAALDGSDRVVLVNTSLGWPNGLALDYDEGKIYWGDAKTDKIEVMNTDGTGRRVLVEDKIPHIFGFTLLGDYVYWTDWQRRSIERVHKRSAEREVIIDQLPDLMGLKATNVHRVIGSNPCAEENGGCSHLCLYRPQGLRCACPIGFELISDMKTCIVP
Assay: HDX-MS

B1: SOSTΔ (24-169) (domain or fragment, human, UniProt Q9BQB4 24-169, looked up)
chain: QGWQAFKNDATEIIPELGEYPEPPPELENNKTMNRAENGGRPPHHPFETKDVSEYSCRELHFTRYVTDGPCRSAKPVTELVCSGQCGPARLLPNAIGRGKWWRPSGPDFRCIPDRYRAQRVQLLCPGGEAPRARKVRLVASCKCKR
B1: binds.

Reference: publication PMC8411024 (Biomolecules & Therapeutics, 2021)
